Experimental data published in the supplement of paper PMC5998384.

What was measured:
HeLa Kyoto [1] = experiment: solubility change mitosis vs G1/S (difference of NP-40 vs SDS log2 ratios) (log2 ratio difference); higher = more soluble in mitosis
HeLa Kyoto [2] = experiment: solubility in G1/S (NP-40 vs SDS abundance) (log2 ratio); higher = more soluble; conditions: cell cycle stage: G1/S
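Throughout, for solubility change mitosis vs G1/S (difference of NP-40 vs SDS log2 ratios): synchronized HeLa Kyoto cells (double thymidine block for G1/S, nocodazole release for mitosis), protein amounts in NP-40 versus SDS lysates quantified by mass spectrometry, three biological replicates.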
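Throughout, for solubility in G1/S (NP-40 vs SDS abundance): HeLa Kyoto cells arrested at G1/S by double thymidine block, proteins quantified by TMT10plex mass spectrometry in mild NP-40 versus SDS extracts, three biological replicates.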

In the case of “MAAVKASTSKATRPWYSHPVYARYWQHYHQAMAWMQSHHNAYRKAVESCFNLPWYLPSALLPQSSYDNEAAYPQSFYDHHVAWQDYPCSSSHFRRSGQHPRYSSRIQASTKEDQALSKEEEMETESDAEVECDLSNMEITEELRQYFAETERHREERRRQQQLDAERLDSYVNADHDLYCNTRRSVEAPTERPGERRQAEMKRLYGDSAAKIQAMEAAVQLSFDKHCDRKQPKYWPVIPLKF [GEMIN8]”, the “solubility change mitosis (log2)” value (HeLa Kyoto [1]) is reported as 0.219 and the “solubility in G1/S (log2)” value (HeLa Kyoto [2]) is reported as 0.511.
“MADFEELRNMVSSFRVSELQVLLGFAGRNKSGRKHDLLMRALHLLKSGCSPAVQIKIRELYRRRYPRTLEGLSDLSTIKSSVFSLDGGSSPVEPDLAVAGIHSLPSTSVTPHSPSSPVGSVLLQDTKPTFEMQQPSPPIPPVHPDVQLKNLPFYDVLDVLIKPTSLVQSSIQRFQEKFFIFALTPQQVREICISRDFLPGGRRDYTVQVQLRLCLAETSCPQEDNYPNSLCIKVNGKLFPLPGYAPPPKNGIEQKRPGRPLNITSLVRLSSAVPNQISISWASEIGKNYSMSVYLVRQLTSAMLLQRLKMKGIRNPDHSRALIKEKLTADPDSEIATTSLRVSLMCPLGKMRLTIPCRAVTCTHLQCFDAALYLQMNEKKPTWICPVCDKKAAYESLILDGLFMEILNDCSDVDEIKFQEDGSWCPMRPKKEAMKVSSQPCTKIESSSVLSKPCSVTVASEASKKKVDVIDLTIESSSDEEEDPPAKRKCIFMSETQSSPTKGVLMYQPSSVRVPSVTSVDPAAIPPSLTDYSVPFHHTPISSMSSDLPGLDFLSLIPVDPQYCPPMFLDSLTSPLTASSTSVTTTSSHESSTHVSSSSSRSETGVITSSGSNIPDIISLD [PIAS2]” was tested, and the “solubility change mitosis (log2)” value (HeLa Kyoto [1]) was -0.0526 and the “solubility in G1/S (log2)” value (HeLa Kyoto [2]) was 0.155.
With “MADPVAGIAGSAAKSVRPFRSSEAYVEAMKEDLAEWLNALYGLGLPGGGDGFLTGLATGTTLCQHANAVTEAARALAAARPARGVAFQAHSVVPGSFMARDNVATFIGWCRVELGVPEVLMFETEDLVLRKNEKSVVLCLLEVARRGARLGLLAPRLVQFEQEIERELRAAPPAPNAPAAGEDTTETAPAPGTPARGPRMTPSDLRNLDELVREILGRCTCPDQFPMIKVSEGKYRVGDSSLLIFVRVLRSHVMVRVGGGWDTLEHYLDKHDPCRCSSTAHRPPQPRVCTFSPQRVSPTTSPRPASPVPGSERRGSRPEMTPVSLRSTKEGPETPPRPRDQLPPHPRSRRYSGDSDSSASSAQSGPLGTRSDDTGTGPRRERPSRRLTTGTPASPRRPPALRSQSRDRLDRGRPRGAPGGRGAQLSVPSPARRARSQSREEQAVLLVRRDRDGQHSWVPRGRGSGGSGRSTPQTPRARSPAAPRLSRVSSPSPELGTTPASIFRTPLQLDPQQEQQLFRRLEEEFLANARALEAVASVTPTGPVPDPARAPDPPAPDSAYCSSSSSSSSLSVLGGKCGQPGDSGRTANGLPGPRSQALSSSSDEGSPCPGMGGPLDAPGSPLACTEPSRTWARGRMDTQPDRKPSRIPTPRGPRRPSGPAELGTWHALHSVTPRAEPDSWM [GAS2L1]” the “solubility change mitosis (log2)” value (HeLa Kyoto [1]) was 0.169 and the “solubility in G1/S (log2)” value (HeLa Kyoto [2]) was 0.282.
For “MAEASSANLGSGCEEKRHEGSSSESVPPGTTISRVKLLDTMVDTFLQKLVAAGSYQRFTDCYKCFYQLQPAMTQQIYDKFIAQLQTSIREEISDIKEEGNLEAVLNALDKIVEEGKVRKEPAWRPSGIPEKDLHSVMAPYFLQQRDTLRRHVQKQEAENQQLADAVLAGRRQVEELQLQVQAQQQAWQALHREQRELVAVLREPE [PMF1]”, the “solubility change mitosis (log2)” value (HeLa Kyoto [1]) was 0.643 and the “solubility in G1/S (log2)” value (HeLa Kyoto [2]) was 0.135.
With “MAEDEPDAKSPKTGGRAPPGGAEAGEPTTLLQRLRGTISKAVQNKVEGILQDVQKFSDNDKLYLYLQLPSGPTTGDKSSEPSTLSNEEYMYAYRWIRNHLEEHTDTCLPKQSVYDAYRKYCESLACCRPLSTANFGKIIREIFPDIKARRLGGRGQSKYCYSGIRRKTLVSMPPLPGLDLKGSESPEMGPEVTPAPRDELVEAACALTCDWAERILKRSFSSIVEVARFLLQQHLISARSAHAHVLKAMGLAEEDEHAPRERSSKPKNGLENPEGGAHKKPERLAQPPKDLEARTGAGPLARGERKKSVVESSAPGANNLQVNALVARLPLLLPRAPRSLIPPIPVSPPILAPRLSSGALKVATLPLSSRAGAPPAAVPIINMILPTVPALPGPGPGPGRAPPGGLTQPRGTENREVGIGGDQGPHDKGVKRTAEVPVSEASGQAPPAKAAKQDIEDTASDAKRKRGRPRKKSGGSGERNSTPLKSAAAMESAQSSRLPWETWGSGGEGNSAGGAERPGPMGEAEKGAVLAQGQGDGTVSKGGRGPGSQHTKEAEDKIPLVPSKVSVIKGSRSQKEAFPLAKGEVDTAPQGNKDLKEHVLQSSLSQEHKDPKATPP [RFX5]” the “solubility change mitosis (log2)” value (HeLa Kyoto [1]) was -0.117 and the “solubility in G1/S (log2)” value (HeLa Kyoto [2]) was 0.487.
“MAEGGGPEPGEQERRSSGPRPPSARDLQLALAELYEDEVKCKSSKSNRPKATVFKSPRTPPQRFYSSEHEYSGLNIVRPSTGKIVNELFKEAREHGAVPLNEATRASGDDKSKSFTGGGYRLGSSFCKRSEYIYGENQLQDVQILLKLWSNGFSLDDGELRPYNEPTNAQFLESVKRGEIPLELQRLVHGGQVNLDMEDHQDQEYIKPRLRFKAFSGEGQKLGSLTPEIVSTPSSPEEEDKSILNAVVLIDDSVPTTKIQIRLADGSRLIQRFNSTHRILDVRNFIVQSRPEFAALDFILVTSFPNKELTDESLTLLEADILNTVLLQQLK [UBXN2B]” was tested, and the “solubility change mitosis (log2)” value (HeLa Kyoto [1]) was 0.053 and the “solubility in G1/S (log2)” value (HeLa Kyoto [2]) was 0.562.
With “MAEGSRGGPTCSGVGGRQDPVSGSGGCNFPEYELPELNTRAFHVGAFGELWRGRLRGAGDLSLREPPASALPGSQAADSDREDAAVARDLDCSLEAAAELRAVCGLDKLKCLEDGEDPEVIPENTDLVTLGVRKRFLEHREETITIDRACRQETFVYEMESHAIGKKPENSADMIEEGELILSVNILYPVIFHKHKEHKPYQTMLVLGSQKLTQLRDSIRCVSDLQIGGEFSNTPDQAPEHISKDLYKSAFFYFEGTFYNDKRYPECRDLSRTIIEWSESHDRGYGKFQTARMEDFTFNDLCIKLGFPYLYCHQGDCEHVIVITDIRLVHHDDCLDRTLYPLLIKKHWLWTRKCFVCKMYTARWVTNNDSFAPEDPCFFCDVCFRMLHYDSEGNKLGEFLAYPYVDPGTFN [SNAPC3]” the “solubility change mitosis (log2)” value (HeLa Kyoto [1]) was -0.167 and the “solubility in G1/S (log2)” value (HeLa Kyoto [2]) was -0.0618.
With “MAELGEADEAELQRLVAAEQQKAQFTAQVHHFMELCWDKCVEKPGNRLDSRTENCLSSCVDRFIDTTLAITSRFAQIVQKGGQ [TIMM8B]” the “solubility change mitosis (log2)” value (HeLa Kyoto [1]) was 0.734 and the “solubility in G1/S (log2)” value (HeLa Kyoto [2]) was -0.938.
In the case of “MAEPGEGLPEEVLALIFRHLSLRDRAAAARVCRAWAAAATCSAVWHDTKISCECELEGMLPPYLSACLDHIHNLRLEFEPSRKPSRRAAIELLMVLAGRAPGLRGLRLECRGEKPLFDAGRDVLEAVHAVCGAASQLRHLDLRRLSFTLDDALVLQAARSCPELHSLFLDNSTLVGSVGPGSVLELLEACPRLRALGLHLASLSHAILEALAAPDRAPFALLALRCACPEDARASPLPNEAWVALRRRHPGLAVELELEPALPAESVTRVLQPAVPVAALRLNLSGDTVGPVRFAAHHYAATLCALEVRAAASAELNAALEELAARCAALREVHCFCVVSHSVLDAFRAHCPRLRTYTLKLTREPHPWRPTLVA [FBXL8]”, the “solubility change mitosis (log2)” value (HeLa Kyoto [1]) is reported as -0.0843 and the “solubility in G1/S (log2)” value (HeLa Kyoto [2]) is reported as -0.196.
For “MAESGGSSGGAGGGGAFGAGPGPERPNSTADKNGALKCTFSAPSHSTSLLQGLATLRAQGQLLDVVLTINREAFPAHKVVLAACSDYFRAMFTGGMREASQDVIELKGVSARGLRHIIDFAYSAEVTLDLDCVQDVLGAAVFLQMLPVVELCEEFLKAAMSVETCLNIGQMATTFSLASLRESVDAFTFRHFLQIAEEEDFLRLPLERLVFFLQSNRLQSCAEIDLFRAAVRWLQHDPARRPRASHVLCHIRFPLMQSSELVDSVQTLDIMVEDVLCRQYLLEAFNYQVLPFRQHEMQSPRTAVRSDVPSLVTFGGTPYTDSDRSVSSKVYQLPEPGARHFRELTEMEVGCSHTCVAVLDNFVYVAGGQHLQYRSGEGAVDACYRYDPHLNRWLRLQAMQESRIQFQLNVLCGMVYATGGRNRAGSLASVERYCPRRNEWGYACSLKRRTWGHAGAASGGRLYISGGYGISVEDKKALHCYDPVADQWEFKAPMSEPRVLHAMVGAGGRIYALGGRMDHVDRCFDVLAVEYYVPETDQWTSVSPMRAGQSEAGCCLLERKIYIVGGYNWRLNNVTGIVQVYNTDTDEWERDLHFPESFAGIACAPVLLPRAGTRR [KLHL26]”, the “solubility change mitosis (log2)” value (HeLa Kyoto [1]) was -0.0565 and the “solubility in G1/S (log2)” value (HeLa Kyoto [2]) was -0.0553.
With “MAETKIIYHMDEEETPYLVKLPVAPERVTLADFKNVLSNRPVHAYKFFFKSMDQDFGVVKEEIFDDNAKLPCFNGRVVSWLVLAEGAHSDAGSQGTDSHTDLPPPLERTGGIGDSRPPSFHPNVASSRDGMDNETGTESMVSHRRERARRRNREEAARTNGHPRGDRRRDVGLPPDSASTALSSELESSSFVDSDEDGSTSRLSSSTEQSTSSRLIRKHKRRRRKQRLRQADRASSFSSITDSTMSLNIVTVTLNMERHHFLGISIVGQSNDRGDGGIYIGSIMKGGAVAADGRIEPGDMLLQVNDVNFENMSNDDAVRVLREIVSQTGPISLTVAKCWDPTPRSYFTVPRADPVRPIDPAAWLSHTAALTGALPRYGTSPCSSAVTRTSSSSLTSSVPGAPQLEEAPLTVKSDMSAVVRVMQLPDSGLEIRDRMWLKITIANAVIGADVVDWLYTHVEGFKERREARKYASSLLKHGFLRHTVNKITFSEQCYYVFGDLCSNLATLNLNSGSSGTSDQDTLAPLPHPAAPWPLGQGYPYQYPGPPPCFPPAYQDPGFSYGSGSTGSQQSEGSKSSGSTRSSRRAPGREKERRAAGAGGSGSESDHTAPSGVGSSWRERPAGQLSRGSSPRSQASATAPGLPPPHPTTKAYTVVGGPPGGPPVRELAAVPPELTGSRQSFQKAMGNPCEFFVDIM [DVL1]” the “solubility change mitosis (log2)” value (HeLa Kyoto [1]) was 0.0447 and the “solubility in G1/S (log2)” value (HeLa Kyoto [2]) was -0.0781.
In the case of “MAGAATGSRTPGRSELVEGCGWRCPEHGDRVAELFCRRCRRCVCALCPVLGAHRGHPVGLALEAAVHVQKLSQECLKQLAIKKQQHIDNITQIEDATEKLKANAESSKTWLKGKFTELRLLLDEEEALAKKFIDKNTQLTLQVYREQADSCREQLDIMNDLSNRVWSISQEPDPVQRLQAYTATEQEMQQQMSLGELCHPVPLSFEPVKSFFKGLVEAVESTLQTPLDIRLKESINCQLSDPSSTKPGTLLKTSPSPERSLLLKYARTPTLDPDTMHARLRLSADRLTVRCGLLGSLGPVPVLRFDALWQVLARDCFATGRHYWEVDVQEAGAGWWVGAAYASLRRRGASAAARLGCNRQSWCLKRYDLEYWAFHDGQRSRLRPRDDLDRLGVFLDYEAGVLAFYDVTGGMSHLHTFRATFQEPLYPALRLWEGAISIPRLP [TRIM14]”, the “solubility change mitosis (log2)” value (HeLa Kyoto [1]) is reported as -0.0649 and the “solubility in G1/S (log2)” value (HeLa Kyoto [2]) is reported as -0.209.
